# Assay results published in patent US20210230570.
# Substitutions are numbered along the chain they refer to. Names may count otherwise.
# B1: FIXa-R318Y/R338E/R403E/E410N (protein)
# chain 1: YNSGKLEEFVQGNLERECMEEKCSFEEAREVFENTERTTEFWKQYVDGDQCESNPCLNGGSCKDDINSYECWCPFGFEGKNCELDVTCNIKNGRCEQFCKNSADNKVVCSCTEGYRLAENQKSCEPAVPFPCGRVSVSQTSKLTR
# chain 2: VVGGEDAKPGQFPWQVVLNGKVDAFCGGSIVNEKWIVTAAHCVETGVKITVVAGEHNIEETEHTEQKRNVIRIIPHHNYNAAINKYNHDIALLELDEPLVLNSYVTPICIADKEYTNIFLKFGSGYVSGWGRVFHKGYSALVLQYLRVPLVDRATCLESTKFTIYNNMFCAGFHEGGRDSCQGDSGGPHVTEVEGTSFLTGIISWGEECAMKGKYGIYTKVSEYVNWIKNKTKLT
# B2: FIXa-R318Y/R338E/T343R/R403E/E410N (protein)
# chain 1: B1 chain 1
# chain 2: B1 chain 2 with T163R
# B3: FIXa-K247N/N249S/R318Y/R338E/T343R/R403E/E410N (protein)
# chain 1: B1 chain 1
# chain 2: B1 chain 2 with K67N, N69S, T163R
# B4: FIXa-K247N/N249S/R338E/T343R/R403E (protein)
# chain 1: B1 chain 1
# chain 2: B1 chain 2 with K67N, N69S, Y138R, T163R, N230E
# B5: FIXa-R318Y/R338E/T343R/E410N (protein)
# chain 1: B1 chain 1
# chain 2: B1 chain 2 with T163R, E223R
# B6: FIXa-K228N/K247N/N249S (protein)
# chain 1: B1 chain 1
# chain 2: B1 chain 2 with K48N, K67N, N69S, Y138R, E158R, E223R, N230E
# B7: FIXa-R318Y/R338E/E410N (protein)
# chain 1: B1 chain 1
# chain 2: B1 chain 2 with E223R
# B8: FIXa-K293A/R338A/R403A (protein)
# chain 1: B1 chain 1
# chain 2: B1 chain 2 with K113A, Y138R, E158A, E223A, N230E
# B9: FIXa-K293E/R338E/R403E (protein)
# chain 1: B1 chain 1
# chain 2: B1 chain 2 with K113E, Y138R, N230E
# B10: FIXa-Y155F/R318Y/R338E/N346D/R403E/E410N (protein)
# chain 1: B1 chain 1
# chain 2: B1 chain 2 with N166D
# B11: FIXa-R318Y/R338E/Y345A/R403E/E410N (protein)
# chain 1: B1 chain 1
# chain 2: B1 chain 2 with Y165A
# B12: FIXa-R318Y/R338E/Y345A/N346D/R403E/E410N (protein)
# chain 1: B1 chain 1
# chain 2: B1 chain 2 with Y165A, N166D
# B13: FIXa D104N/K106S/R318Y/R338E/R403E/E410N (mature FIX numbering) (protein)
# chain 1: B1 chain 1 with D104N, K106S
# chain 2: B1 chain 2
# B14: FIXa R318Y/R338E/R403E/E410N (mature FIX numbering) (protein)
# chain 1: B1 chain 1
# chain 2: B1 chain 2
# B15: FIXa A103N/N105S/Y155F/R318Y/R338E/R403E/E410N (mature FIX numbering) (protein)
# chain 1: B1 chain 1 with A103N, N105S
# chain 2: B1 chain 2
# B16: FIXa A103N/N105S/R318Y/R338E/R403E/E410N (mature FIX numbering) (protein)
# chain 1: B1 chain 1 with A103N, N105S
# chain 2: B1 chain 2
# B17: FIXa D104N/K106S/Y155F/R318Y/R338E/R403E/E410N (mature FIX numbering) (protein)
# chain 1: B1 chain 1 with D104N, K106S
# chain 2: B1 chain 2
# B18: FIXa Y155F/R318Y/R338E/R403E/E410N (mature FIX numbering) (protein)
# chain 1: B1 chain 1
# chain 2: B1 chain 2
# B19: FIXa D203N/F205T/R318Y/E410N (mature FIX numbering) (protein)
# chain 1: B1 chain 1
# chain 2: B1 chain 2 with D23N, F25T, E158R, E223R
# Molecular target: Factor X (FX), substrate zymogen, P00742
# Sequence (P00742 whole entry, looked up): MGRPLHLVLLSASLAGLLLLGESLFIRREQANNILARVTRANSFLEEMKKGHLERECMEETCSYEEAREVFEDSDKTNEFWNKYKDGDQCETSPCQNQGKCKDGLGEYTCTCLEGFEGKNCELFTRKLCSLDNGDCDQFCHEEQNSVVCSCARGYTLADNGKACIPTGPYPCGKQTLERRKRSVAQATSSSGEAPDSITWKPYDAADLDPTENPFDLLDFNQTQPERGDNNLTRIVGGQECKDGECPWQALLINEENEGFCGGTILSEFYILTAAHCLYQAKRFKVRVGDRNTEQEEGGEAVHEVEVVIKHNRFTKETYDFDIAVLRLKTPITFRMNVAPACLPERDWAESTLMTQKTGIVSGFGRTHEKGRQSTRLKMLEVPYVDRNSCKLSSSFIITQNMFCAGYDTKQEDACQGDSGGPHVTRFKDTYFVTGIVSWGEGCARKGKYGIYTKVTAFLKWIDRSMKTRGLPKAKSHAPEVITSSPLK
row,Protein,"catalytic activity (kcat/KM) for activation of FX in the Xase complex (FVIIIa, PC/PS vesicles, Ca2+), fluorogenic FXa read-out"
1,B1,displayed some of the greatest increases in catalytic activity
2,B2,displayed some of the greatest increases in catalytic activity
3,B3,improved activity when combined with other mutations
4,B4,improved activity when combined with other mutations
5,B5,displayed some of the greatest increases in catalytic activity
6,B6,demonstrated close to wild-type activity
7,B7,displayed some of the greatest increases in catalytic activity

# Molecular target: antithrombin III (plasma purified human AT-III), in complex with unfractionated heparin
Protein,K0.5 [µM],K0.5-mut/K0.5-wt
B1,5.88,–
B8,> 0.999,> 51.7
B9,> 0.999,> 51.7
B7,3.46,179

# Molecular target: Factor X, P00742
# Sequence (P00742 whole entry, looked up): as above
Protein,KM (Catalytic activity of FIXa variants) [µM],% of WT (kcat/KM) [%],kcat/KM [M⁻¹ s⁻¹]
B1,0.0455,–,–
B8,–,53,2.5e+07
B9,0.05,36,1.7e+07
B7,0.0142,–,–

# Molecular target: plasma purified human AT-III (Molecular Innovations)
row,Protein,K0.5-mut/K0.5-wt
1,B8,16.9
2,B9,14.2

# Molecular target: Antithrombin III (plasma purified human AT-III, Molecular Innovations), as AT-III/UFH complex
row,Protein,K0.5-mut/K0.5-wt (against Catalyst Biosciences WT FIXa)
1,B2,> 517
2,B10,> 517
3,B11,> 517
4,B12,> 517

# Molecular target: Factor X (FX), P00742
# Sequence (P00742 whole entry, looked up): as above
Protein,"kcat/KM (M^-1s^-1), FX activation by FIXa in the Xase complex [M⁻¹ s⁻¹]",KM [µM],KM (nM); Catalytic activity of FIXa variants (KM) [nM],"kcat of FX activation by FIXa in the Xase complex (FVIIIa, PC/PS vesicles, Ca2+) [s⁻¹]",kcat/KM [M⁻¹ s⁻¹],kcat [s⁻¹],kcat (FX activation in the Xase complex) [s⁻¹],"kcat/KM for FX activation (Xase assay with FVIIIa, PC/PS vesicles, Ca2+) [M⁻¹ s⁻¹]"
B1,1.5e+08,–,–,–,–,–,–,–
B2,–,0.0247,22.3,9.7,5.4e+08,–,–,–
B3,–,0.0292,–,10.6,–,–,–,–
B4,–,–,–,–,5.6e+08,14.6,–,–
B10,–,–,100,6.4,–,–,–,–
B11,–,0.0188,–,1.4,–,–,–,–
B8,–,–,–,–,–,–,1.6,2.5e+07
B5,–,0.0164,–,4.9,–,–,–,–
B9,–,–,–,–,–,–,0.8,1.7e+07
B12,–,0.0565,–,1.2,–,–,–,–
B7,3.4e+08,–,–,–,–,–,–,3.4e+08

# Molecular target: plasma purified human AT-III (antithrombin III), in complex with full-length unfractionated heparin (AT-III/UFH)
row,Protein,K0.5-mut/K0.5-wt (against Catalyst Biosciences WT FIXa)
1,B10,> 517
2,B6,4.4

# Molecular target: plasma purified human antithrombin III (AT-III) in complex with unfractionated heparin (AT-III/UFH)
row,Protein,K0.5 [µM]
1,B13,> 10
2,B14,5.88
3,B15,> 10
4,B16,9.19
5,B17,> 10
6,B18,> 10
7,B19,1.28
